The results in this text go back to the supplement of paper PMC7125110.

B1: glmS ribozyme (parent)
chain: AUAAAAGCGCCAGAACUACAGAAAUGUAGUUGACGAGGAGGAGGUUUAUCGAAUUUUCGGCGGAUGCCUCCAAA

± gives the standard error. Variants at the floor of the assay were thinned out. Some results are limits rather than exact numbers.

The variants in one data set derive from B1. Put plainly: self-cleavage kobs at 2500 uM GlcN6P; higher = faster cleavage; RNA array. As to conditions: with glucosamine-6-phosphate. The gist of the method: (§1)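 kcat and KM were obtained from weighted Michaelis–Menten fits across concentrations of kobs values. Those came from one- or two-exponential decay fits to per-tile medians normalised to baseline and to non-cleaving reference variants. The variants were barcoded ribozymes transcribed in situ by E. coli RNA polymerase on sequenced MiSeq chips and tracked through a hybridised Cy3 probe at 37 °C, with 40 μM to 10 mM glucosamine-6-phosphate in HEPES/KCl/Mg(OAc)2 buffer flowed in.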
Regarding A14U G38C A42U, the “self-cleavage kobs at 2500 uM GlcN6P” value was below 1e-05 s⁻¹.

G9C C50G U55A U57G C70U: the “self-cleavage kobs at 2500 uM GlcN6P” value was 0.000283 ± 0.0001 s⁻¹.

Consider U49C C68U, for which the “self-cleavage kobs at 2500 uM GlcN6P” value is below 1e-05 s⁻¹.

A33U A48G U55G: the “self-cleavage kobs at 2500 uM GlcN6P” value was below 1e-05 s⁻¹.

For G40U G43U C70G, the “self-cleavage kobs at 2500 uM GlcN6P” value was below 1e-05 s⁻¹.

A48U G60C C61A: the “self-cleavage kobs at 2500 uM GlcN6P” value was below 1e-05 s⁻¹.

G9C A33C G38C A39C U65G: the “self-cleavage kobs at 2500 uM GlcN6P” value was below 1e-05 s⁻¹.

Consider C8A G29U G32U, for which the “self-cleavage kobs at 2500 uM GlcN6P” value was below 1e-05 s⁻¹.

In the case of C10G C34G G51U, the “self-cleavage kobs at 2500 uM GlcN6P” value was below 1e-05 s⁻¹.

As to C8A G40U A53G, the “self-cleavage kobs at 2500 uM GlcN6P” value was below 1e-05 s⁻¹.

Take A28C U49G U55A: the “self-cleavage kobs at 2500 uM GlcN6P” value was 0.000284 ± 7.5e-05 s⁻¹.

In the case of A15U C16U A33U A42U U57G G62C A64U, the “self-cleavage kobs at 2500 uM GlcN6P” value is below 1e-05 s⁻¹.

Regarding C8U C11G C58A, the “self-cleavage kobs at 2500 uM GlcN6P” value is below 1e-05 s⁻¹.

Regarding G38C A39G G59A, the “self-cleavage kobs at 2500 uM GlcN6P” value was below 1e-05 s⁻¹.

With A12U G40A U57A A64C, the “self-cleavage kobs at 2500 uM GlcN6P” value was below 1e-05 s⁻¹.

On to A12G U31A G38C G40U G41A C58A, for which the “self-cleavage kobs at 2500 uM GlcN6P” value is below 1e-05 s⁻¹.

For C11U G35C U54A G60U C71A, the “self-cleavage kobs at 2500 uM GlcN6P” value is below 1e-05 s⁻¹.

In the case of A15G U47A C58G, the “self-cleavage kobs at 2500 uM GlcN6P” value amounted to 4.72e-05 ± 1.4e-05 s⁻¹.

With G32U G63C C71G, the “self-cleavage kobs at 2500 uM GlcN6P” value came to 6.45e-05 ± 3.2e-05 s⁻¹.

G32A U45C C71U: the “self-cleavage kobs at 2500 uM GlcN6P” value came out at 7.08e-05 ± 2.9e-05 s⁻¹.

In the case of U31C A39G U49G C70U, the “self-cleavage kobs at 2500 uM GlcN6P” value amounted to 2.73e-05 ± 1.4e-05 s⁻¹.

For A12G A14U A64G, the “self-cleavage kobs at 2500 uM GlcN6P” value is 0.000293 ± 7.2e-05 s⁻¹.

Regarding A12C G41A G63A, the “self-cleavage kobs at 2500 uM GlcN6P” value was below 1e-05 s⁻¹.

A12G A15U U54C C67G: the “self-cleavage kobs at 2500 uM GlcN6P” value worked out at 5.41e-05 ± 1.9e-05 s⁻¹.

As for G40U C58A G60U, the “self-cleavage kobs at 2500 uM GlcN6P” value is below 1e-05 s⁻¹.

For the variant G13A A14U A53U U54C G60A, the “self-cleavage kobs at 2500 uM GlcN6P” value was below 1e-05 s⁻¹.

For U46G U47A C71A, the “self-cleavage kobs at 2500 uM GlcN6P” value was determined as 0.00116 ± 0.00028 s⁻¹.

For the variant G37C G44A G51U G59C, the “self-cleavage kobs at 2500 uM GlcN6P” value was below 1e-05 s⁻¹.

As for G29C U30C G32U A52C, the “self-cleavage kobs at 2500 uM GlcN6P” value was below 1e-05 s⁻¹.

Consider A12C C58U G60U, for which the “self-cleavage kobs at 2500 uM GlcN6P” value is below 1e-05 s⁻¹.

Turning to C11U G13U U30C G44A, the “self-cleavage kobs at 2500 uM GlcN6P” value was below 1e-05 s⁻¹.

For A12C C50U G60U C67U, the “self-cleavage kobs at 2500 uM GlcN6P” value is below 1e-05 s⁻¹.

For the variant G13C U31A A64G, the “self-cleavage kobs at 2500 uM GlcN6P” value is 9.93e-05 ± 3e-05 s⁻¹.

C11G G29C A36G U69G: the “self-cleavage kobs at 2500 uM GlcN6P” value is 0.001 ± 0.00046 s⁻¹.

With G59A U69C C70U, the “self-cleavage kobs at 2500 uM GlcN6P” value is below 1e-05 s⁻¹.

Turning to G32A G60A U65C, the “self-cleavage kobs at 2500 uM GlcN6P” value is below 1e-05 s⁻¹.

A42U G59U C61G A64U C68A C70G: the “self-cleavage kobs at 2500 uM GlcN6P” value was below 1e-05 s⁻¹.

A14U U30A C70U: the “self-cleavage kobs at 2500 uM GlcN6P” value was determined as 0.000871 ± 0.00021 s⁻¹.

Variants of B1 are the subject of another data set. Put plainly: self-cleavage kobs at 10000 uM GlcN6P; higher = faster cleavage; RNA array. The settings on record: with glucosamine-6-phosphate. The gist of the method: as §1
On to A14U G38C A42U, for which the “self-cleavage kobs at 10000 uM GlcN6P” value was below 1e-05 s⁻¹.

With C16A U31A C70U, the “self-cleavage kobs at 10000 uM GlcN6P” value was found to be 0.00113 ± 0.00026 s⁻¹.

As for A12G C16G C34G U55G, the “self-cleavage kobs at 10000 uM GlcN6P” value is below 1e-05 s⁻¹.

On to G9C C50G U55A U57G C70U, for which the “self-cleavage kobs at 10000 uM GlcN6P” value came out at 0.000426 ± 0.00018 s⁻¹.

As to U30A U45C, the “self-cleavage kobs at 10000 uM GlcN6P” value turned out to be 0.000307 ± 8.9e-05 s⁻¹.

Regarding A24C G29C, the “self-cleavage kobs at 10000 uM GlcN6P” value was 0.00129 ± 0.00026 s⁻¹.

Take A6G A14U A36G C50A: the “self-cleavage kobs at 10000 uM GlcN6P” value was below 1e-05 s⁻¹.

For the variant G32A U54C U56C C58A, the “self-cleavage kobs at 10000 uM GlcN6P” value is 9.78e-05 ± 2.1e-05 s⁻¹.

As to G13U U55G C67U, the “self-cleavage kobs at 10000 uM GlcN6P” value worked out at 0.0003 ± 6.1e-05 s⁻¹.

For the variant G7C A42G G43A, the “self-cleavage kobs at 10000 uM GlcN6P” value was below 1e-05 s⁻¹.

Take A14C G60U C70A: the “self-cleavage kobs at 10000 uM GlcN6P” value is below 1e-05 s⁻¹.

Take G7U A15U C70G: the “self-cleavage kobs at 10000 uM GlcN6P” value came out at 3.63e-05 ± 1.7e-05 s⁻¹.

As to C11U G29C C71U, the “self-cleavage kobs at 10000 uM GlcN6P” value was determined as 0.000101 ± 1.9e-05 s⁻¹.

Regarding G40A G59U C61A, the “self-cleavage kobs at 10000 uM GlcN6P” value is below 1e-05 s⁻¹.

Take G13U G43U A64U: the “self-cleavage kobs at 10000 uM GlcN6P” value was below 1e-05 s⁻¹.

With G7A G40C A42U G43U U57C, the “self-cleavage kobs at 10000 uM GlcN6P” value is below 1e-05 s⁻¹.

As for G32A U56A C67G, the “self-cleavage kobs at 10000 uM GlcN6P” value was 0.000139 ± 2e-05 s⁻¹.

For C8U C34G C58G G60U C67U, the “self-cleavage kobs at 10000 uM GlcN6P” value is below 1e-05 s⁻¹.

Regarding U49A U56A A64C, the “self-cleavage kobs at 10000 uM GlcN6P” value is below 1e-05 s⁻¹.

As to U45A A52U C61A, the “self-cleavage kobs at 10000 uM GlcN6P” value is below 1e-05 s⁻¹.

In the case of G7A U57C, the “self-cleavage kobs at 10000 uM GlcN6P” value was below 1e-05 s⁻¹.

For the variant A6G C11A C34U C58U C68G, the “self-cleavage kobs at 10000 uM GlcN6P” value is 0.000295 ± 0.0001 s⁻¹.

As for G32A U55A C67G, the “self-cleavage kobs at 10000 uM GlcN6P” value was 8.33e-05 ± 2.7e-05 s⁻¹.

On to A12G U54C, for which the “self-cleavage kobs at 10000 uM GlcN6P” value was found to be 0.001 ± 0.00011 s⁻¹.

Regarding A15C U46C G62U, the “self-cleavage kobs at 10000 uM GlcN6P” value is below 1e-05 s⁻¹.

Take A15C G43C G51A C58G: the “self-cleavage kobs at 10000 uM GlcN6P” value is below 1e-05 s⁻¹.

Turning to U31G C58U, the “self-cleavage kobs at 10000 uM GlcN6P” value is 9.69e-05 ± 1.1e-05 s⁻¹.

Regarding U31A G41U A42U G62A, the “self-cleavage kobs at 10000 uM GlcN6P” value was below 1e-05 s⁻¹.

On to C11U A12G C50U, for which the “self-cleavage kobs at 10000 uM GlcN6P” value was below 1e-05 s⁻¹.

In the case of A14G A15G A33U, the “self-cleavage kobs at 10000 uM GlcN6P” value was 8.09e-05 ± 1.9e-05 s⁻¹.

Regarding U47G A48U C68U, the “self-cleavage kobs at 10000 uM GlcN6P” value is 9.1e-05 ± 1.8e-05 s⁻¹.

Consider G9U U31G C34U G59U, for which the “self-cleavage kobs at 10000 uM GlcN6P” value was below 1e-05 s⁻¹.

Take A6U A15G G43A C68G: the “self-cleavage kobs at 10000 uM GlcN6P” value was below 1e-05 s⁻¹.

Regarding G29A A33C G41C C70U, the “self-cleavage kobs at 10000 uM GlcN6P” value is below 1e-05 s⁻¹.

Take U30G A33C A48C C71U: the “self-cleavage kobs at 10000 uM GlcN6P” value was below 1e-05 s⁻¹.

With C34U G38A C70G, the “self-cleavage kobs at 10000 uM GlcN6P” value is 3.44e-05 ± 1.7e-05 s⁻¹.

Consider G13U G37A G40U, for which the “self-cleavage kobs at 10000 uM GlcN6P” value is below 1e-05 s⁻¹.

Turning to A12U G29C A33U, the “self-cleavage kobs at 10000 uM GlcN6P” value stood at 4.02e-05 ± 1.2e-05 s⁻¹.

As for C10G A12G C61U, the “self-cleavage kobs at 10000 uM GlcN6P” value was below 1e-05 s⁻¹.

For A14C G32A U69G, the “self-cleavage kobs at 10000 uM GlcN6P” value came out at 7e-05 ± 1.6e-05 s⁻¹.

Consider C8G A14U A52C G59C C71U, for which the “self-cleavage kobs at 10000 uM GlcN6P” value was below 1e-05 s⁻¹.

As to C10U C58U G59C, the “self-cleavage kobs at 10000 uM GlcN6P” value is below 1e-05 s⁻¹.

As for A12C C16G G37A C67A C71U, the “self-cleavage kobs at 10000 uM GlcN6P” value is below 1e-05 s⁻¹.

For the variant G13A A22U U45G, the “self-cleavage kobs at 10000 uM GlcN6P” value was 7.33e-05 ± 1e-05 s⁻¹.

On to G29C G44A U47C U49G U57G G60C C68U C70G, for which the “self-cleavage kobs at 10000 uM GlcN6P” value was below 1e-05 s⁻¹.

As to C11U A42C U69A, the “self-cleavage kobs at 10000 uM GlcN6P” value was 9.21e-05 ± 2.5e-05 s⁻¹.

As for G29A G40U C68G, the “self-cleavage kobs at 10000 uM GlcN6P” value is below 1e-05 s⁻¹.
